Data from patent US20210246166A1 (Bayer, published 2021).
Numbered stars: 1 amine (or outer) side, 2 acyl side, 3 side chain; on linkers, the order of the positions; unused ones are H or OH. Bridge positions count the residues as written; N and C are the ends. Square brackets hold non-standard residues; d marks the D form. Ends that are not written are not given here. * marks the point of attachment. X7 = 4‑(3,5-Dimethyl-1,2-oxazol-4-yl)‑L‑phenylalanine, Cc1noc(C)c1-c1ccc(C[C@H](N[*:1])C(=O)[*:2])cc1; Oic = O=C(O)[C@@H]1C[C@@H]2CCCC[C@@H]2N1; Butanoyl(3,3-Me2) = CC(C)(C)CC(=O)*; tBuAla = CC(C)(C)C[C@H](N)C(=O)O; Pen = CC(C)(S)[C@H](N)C(=O)O; 4Amb = NCc1ccc(C(=O)O)cc1; NMeC = CN[C@@H](CS)C(=O)O; Aib = CC(C)(N)C(=O)O; Sar = CNCC(=O)O

T1: recombinant human MASP1 active protease (amino acids 297-699, C-terminal His Tag) (human, UniProt P48740 297-699)
T1 sequence: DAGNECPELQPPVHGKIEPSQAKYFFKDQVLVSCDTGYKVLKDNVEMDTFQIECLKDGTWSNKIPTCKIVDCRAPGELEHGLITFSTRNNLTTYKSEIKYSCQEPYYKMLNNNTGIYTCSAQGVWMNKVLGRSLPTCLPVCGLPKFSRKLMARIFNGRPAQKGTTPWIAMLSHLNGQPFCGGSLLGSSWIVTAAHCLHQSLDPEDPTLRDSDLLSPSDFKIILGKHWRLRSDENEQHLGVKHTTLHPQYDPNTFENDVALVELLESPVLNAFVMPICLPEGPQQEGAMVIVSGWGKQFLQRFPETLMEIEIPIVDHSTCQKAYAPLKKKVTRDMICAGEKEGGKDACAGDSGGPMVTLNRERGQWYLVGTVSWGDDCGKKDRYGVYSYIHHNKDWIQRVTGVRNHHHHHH


Tests used:
[1] = biological target: T1, recombinant human MASP1 active protease …; test: cell-based or functional assay
[2] = biological target: recombinant human MASP2 active protease (amino acids 297-686, C-terminal His Tag) (human, UniProt O00187 297-686); test: cell-based or functional assay
Sequence of recombinant human MASP2 active protease (amino acids 297-686, C-terminal His Tag) (O00187 other isoform, or with tags, fused parts or gaps limits assumed): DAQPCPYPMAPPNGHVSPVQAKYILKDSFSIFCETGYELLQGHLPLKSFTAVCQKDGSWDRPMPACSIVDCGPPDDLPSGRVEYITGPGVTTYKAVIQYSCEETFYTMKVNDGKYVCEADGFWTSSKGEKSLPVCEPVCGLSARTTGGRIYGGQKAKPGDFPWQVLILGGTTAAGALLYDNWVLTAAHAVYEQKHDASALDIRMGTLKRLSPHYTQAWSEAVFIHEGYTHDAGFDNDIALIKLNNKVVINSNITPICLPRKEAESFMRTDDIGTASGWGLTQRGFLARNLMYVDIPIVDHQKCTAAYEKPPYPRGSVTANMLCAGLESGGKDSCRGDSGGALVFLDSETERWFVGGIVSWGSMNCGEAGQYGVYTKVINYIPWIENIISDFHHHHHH

Row | human MASP1 IC50 [1] | human MASP2 IC50 [2] | Binder
1 | 0.036 µM | 0.66 µM | ICSRSLP[Oic]I[Pen]IPE-NH2 (disulfide 2-10; N-terminus assumed; SMILES CC[C@H](C)[C@H](N)C(=O)N[C@H]1CSSC(C)(C)[C@@H](C(=O)N[C@H](C(=O)N2CCC[C@H]2C(=O)N[C@@H](CCC(=O)O)C(N)=O)[C@@H](C)CC)NC(=O)[C@H]([C@@H](C)CC)NC(=O)[C@@H]2C[C@@H]3CCCC[C@@H]3N2C(=O)[C@@H]2CCCN2C(=O)[C@H](CC(C)C)NC(=O)[C@H](CO)NC(=O)[C@H](CCCNC(=N)N)NC(=O)[C@H](CO)NC1=O) [Example 372: IC+SRSLP-(Oic)-I-(Pen)+IPE-NH2]
2 | 0.035 µM | 0.42 µM | ICSRSLP[Oic]I[Pen]IPE-OH (disulfide 2-10; N-terminus assumed; SMILES CC[C@H](C)[C@H](N)C(=O)N[C@H]1CSSC(C)(C)[C@@H](C(=O)N[C@H](C(=O)N2CCC[C@H]2C(=O)N[C@@H](CCC(=O)O)C(=O)O)[C@@H](C)CC)NC(=O)[C@H]([C@@H](C)CC)NC(=O)[C@@H]2C[C@@H]3CCCC[C@@H]3N2C(=O)[C@@H]2CCCN2C(=O)[C@H](CC(C)C)NC(=O)[C@H](CO)NC(=O)[C@H](CCCNC(=N)N)NC(=O)[C@H](CO)NC1=O) [Example 369: IC+SRSLP-(Oic)-I-(Pen)+IPE-OH]
3 | 0.032 µM | 1 µM | [Sar]PICSRS[tBuAla]PPI[Pen]IP-NH2 (disulfide 4-12; N-terminus assumed; SMILES CC[C@H](C)[C@H](NC(=O)[C@@H]1CCCN1C(=O)CNC)C(=O)N[C@H]1CSSC(C)(C)[C@@H](C(=O)N[C@H](C(=O)N2CCC[C@H]2C(N)=O)[C@@H](C)CC)NC(=O)[C@H]([C@@H](C)CC)NC(=O)[C@@H]2CCCN2C(=O)[C@@H]2CCCN2C(=O)[C@H](CC(C)(C)C)NC(=O)[C@H](CO)NC(=O)[C@H](CCCNC(=N)N)NC(=O)[C@H](CO)NC1=O) [Example 361: ((N-Me)G)-PIC+SRS-((tBu)A)-PPI-(Pen)+IP-NH2]
4 | 0.035 µM | 1.2 µM | ICSRSLP[Oic]I[Pen]I-OH (disulfide 2-10; N-terminus assumed; SMILES CC[C@H](C)[C@H](N)C(=O)N[C@H]1CSSC(C)(C)[C@@H](C(=O)N[C@H](C(=O)O)[C@@H](C)CC)NC(=O)[C@H]([C@@H](C)CC)NC(=O)[C@@H]2C[C@@H]3CCCC[C@@H]3N2C(=O)[C@@H]2CCCN2C(=O)[C@H](CC(C)C)NC(=O)[C@H](CO)NC(=O)[C@H](CCCNC(=N)N)NC(=O)[C@H](CO)NC1=O) [Example 368: IC+SRSLP-(Oic)-I-(Pen)+I-OH]
5 | 0.033 µM | 0.065 µM | [4Amb]ICSRSLPPI[NMeC]IPD-NH2 (disulfide 3-11; N-terminus assumed; SMILES CC[C@H](C)[C@H](NC(=O)c1ccc(CN)cc1)C(=O)N[C@H]1CSSC[C@@H](C(=O)N[C@H](C(=O)N2CCC[C@H]2C(=O)N[C@@H](CC(=O)O)C(N)=O)[C@@H](C)CC)N(C)C(=O)[C@H]([C@@H](C)CC)NC(=O)[C@@H]2CCCN2C(=O)[C@@H]2CCCN2C(=O)[C@H](CC(C)C)NC(=O)[C@H](CO)NC(=O)[C@H](CCCNC(=N)N)NC(=O)[C@H](CO)NC1=O) [Example 362: (4-(Aminomethyl)benzoic acid)-IC+SRSLPPI-((N-Me)C)+IPD-NH2]
6 | 0.035 µM | 0.0935 µM | [dF]ICSRSLP[Oic]I[Pen]IP-NH2 (disulfide 3-11; N-terminus assumed; SMILES CC[C@H](C)[C@H](NC(=O)[C@H](N)Cc1ccccc1)C(=O)N[C@H]1CSSC(C)(C)[C@@H](C(=O)N[C@H](C(=O)N2CCC[C@H]2C(N)=O)[C@@H](C)CC)NC(=O)[C@H]([C@@H](C)CC)NC(=O)[C@@H]2C[C@@H]3CCCC[C@@H]3N2C(=O)[C@@H]2CCCN2C(=O)[C@H](CC(C)C)NC(=O)[C@H](CO)NC(=O)[C@H](CCCNC(=N)N)NC(=O)[C@H](CO)NC1=O) [Example 370: fIC+SRSLP-(Oic)-I-(Pen)+IP-NH2]
7 | 0.035 µM | 0.6 µM | [Sar]ICSRSLPPICI[Oic]D-OH (disulfide 3-11; N-terminus assumed; SMILES CC[C@H](C)[C@H](NC(=O)CNC)C(=O)N[C@H]1CSSC[C@@H](C(=O)N[C@H](C(=O)N2[C@H](C(=O)N[C@@H](CC(=O)O)C(=O)O)C[C@@H]3CCCC[C@@H]32)[C@@H](C)CC)NC(=O)[C@H]([C@@H](C)CC)NC(=O)[C@@H]2CCCN2C(=O)[C@@H]2CCCN2C(=O)[C@H](CC(C)C)NC(=O)[C@H](CO)NC(=O)[C@H](CCCNC(=N)N)NC(=O)[C@H](CO)NC1=O) [Example 367: ((N-Me)G)-IC+SRSLPPIC+I-(Oic)-D-OH]
8 | 0.031 µM | 0.055 µM | [X7]ICSRSLP[Oic]I[Pen]IP-NH2 (disulfide 3-11; N-terminus assumed; SMILES CC[C@H](C)[C@H](NC(=O)[C@@H](N)Cc1ccc(-c2c(C)noc2C)cc1)C(=O)N[C@H]1CSSC(C)(C)[C@@H](C(=O)N[C@H](C(=O)N2CCC[C@H]2C(N)=O)[C@@H](C)CC)NC(=O)[C@H]([C@@H](C)CC)NC(=O)[C@@H]2C[C@@H]3CCCC[C@@H]3N2C(=O)[C@@H]2CCCN2C(=O)[C@H](CC(C)C)NC(=O)[C@H](CO)NC(=O)[C@H](CCCNC(=N)N)NC(=O)[C@H](CO)NC1=O) [Example 360: (4-(3,5-Dimethyl-1,2-oxazol-4-yl)-L-phenylalanine)-IC+SRSLP-(Oic)-I-(Pen)+IP-NH2]
9 | 0.033 µM | 0.098 µM | Tranexamic-ICSRSLPPI[NMeC]IPD-NH2 (disulfide 2-10) [Example 364: (Tranexamic)-IC+SRSLPPI-((N-Me)C)+IPD-NH2]
10 | 0.037 µM | 0.45 µM | [Aib]ICSRSLPPICIPD-NH2 (disulfide 3-11; N-terminus assumed; SMILES CC[C@H](C)[C@@H]1NC(=O)[C@@H]2CCCN2C(=O)[C@@H]2CCCN2C(=O)[C@H](CC(C)C)NC(=O)[C@H](CO)NC(=O)[C@H](CCCNC(=N)N)NC(=O)[C@H](CO)NC(=O)[C@@H](NC(=O)[C@@H](NC(=O)C(C)(C)N)[C@@H](C)CC)CSSC[C@@H](C(=O)N[C@H](C(=O)N2CCC[C@H]2C(=O)N[C@@H](CC(=O)O)C(N)=O)[C@@H](C)CC)NC1=O) [Example 373: (Aib)-IC+SRSLPPIC+IPD-NH2]
11 | 0.0011 µM | 0.035 µM | [Sar]ICSRSLP[Oic]I[Pen]IP-NH2 (disulfide 3-11; also: citrate salt) [Example 376: ((N-Me)G)-IC+SRSLP-(Oic)-I-(Pen)+IP-NH2 (Citrate)]
12 | 0.031 µM | 0.034 µM | {Butanoyl(3,3-Me2)}-ICSRS[tBuAla]PPI[Pen]IP-NH2 (disulfide 2-10; SMILES CC[C@H](C)[C@H](NC(=O)CC(C)(C)C)C(=O)N[C@H]1CSSC(C)(C)[C@@H](C(=O)N[C@H](C(=O)N2CCC[C@H]2C(N)=O)[C@@H](C)CC)NC(=O)[C@H]([C@@H](C)CC)NC(=O)[C@@H]2CCCN2C(=O)[C@@H]2CCCN2C(=O)[C@H](CC(C)(C)C)NC(=O)[C@H](CO)NC(=O)[C@H](CCCNC(=N)N)NC(=O)[C@H](CO)NC1=O) [Example 359: (tert-Butylacetic acid)-IC+SRS-((tBu)A)-PPI-(Pen)+IP-NH2]
13 | 0.037 µM | 0.81 µM | ICSRSLP[Oic]I[Pen]IPQ-NH2 (disulfide 2-10; N-terminus assumed; SMILES CC[C@H](C)[C@H](N)C(=O)N[C@H]1CSSC(C)(C)[C@@H](C(=O)N[C@H](C(=O)N2CCC[C@H]2C(=O)N[C@@H](CCC(N)=O)C(N)=O)[C@@H](C)CC)NC(=O)[C@H]([C@@H](C)CC)NC(=O)[C@@H]2C[C@@H]3CCCC[C@@H]3N2C(=O)[C@@H]2CCCN2C(=O)[C@H](CC(C)C)NC(=O)[C@H](CO)NC(=O)[C@H](CCCNC(=N)N)NC(=O)[C@H](CO)NC1=O) [Example 377: IC+SRSLP-(Oic)-I-(Pen)+IPQ-NH2]
14 | 0.037 µM | 14 µM | AICSRSLPPIC[2‑Methyl‑D‑alloisoleucine]PD-NH2 (disulfide 3-11) [Example 374: AIC+SRSLPPIC+(2-Methyl-D-alloisoleucine)-PD-NH2]
15 | 0.038 µM | 1.1 µM | PPICSRS[tBuAla]PPI[Pen]IP-NH2 (disulfide 4-12; N-terminus assumed; SMILES CC[C@H](C)[C@H](NC(=O)[C@@H]1CCCN1C(=O)[C@@H]1CCCN1)C(=O)N[C@H]1CSSC(C)(C)[C@@H](C(=O)N[C@H](C(=O)N2CCC[C@H]2C(N)=O)[C@@H](C)CC)NC(=O)[C@H]([C@@H](C)CC)NC(=O)[C@@H]2CCCN2C(=O)[C@@H]2CCCN2C(=O)[C@H](CC(C)(C)C)NC(=O)[C@H](CO)NC(=O)[C@H](CCCNC(=N)N)NC(=O)[C@H](CO)NC1=O) [Example 378: PPIC+SRS-((tBu)A)-PPI-(Pen)+IP-NH2]
16 | 0.036 µM | 0.81 µM | PPICSRS[tBuAla]PPI[Pen]I-NH2 (disulfide 4-12; N-terminus assumed; SMILES CC[C@H](C)[C@H](NC(=O)[C@H]1NC(=O)[C@H]([C@@H](C)CC)NC(=O)[C@@H]2CCCN2C(=O)[C@@H]2CCCN2C(=O)[C@H](CC(C)(C)C)NC(=O)[C@H](CO)NC(=O)[C@H](CCCNC(=N)N)NC(=O)[C@H](CO)NC(=O)[C@@H](NC(=O)[C@@H](NC(=O)[C@@H]2CCCN2C(=O)[C@@H]2CCCN2)[C@@H](C)CC)CSSC1(C)C)C(N)=O) [Example 371: PPIC+SRS-((tBu)A)-PPI-(Pen)+I-NH2]
